This passage reports Kd results from paper PMC7124958.

Common to all, as to assay: MST
Test [1] addresses WT human β-cardiac 25-hep HMM (UniProt P12883).
The target in test [2] is R663H human β-cardiac 25-hep HMM (UniProt P12883).
In test [3] the target is C0-C7 fragment of human cardiac myosin binding protein-C (MyBP-C) (human).
For test [4], the target named is WT human β-cardiac short S1 (sS1) (human) (UniProt P12883).
Test [5] has as its target R663H human β-cardiac short S1 (sS1) (human) (UniProt P12883).

Usually Kd stands for the constant that tells how readily two partners part at equilibrium. A low value points to higher affinity. Consider “C0-C7 fragment of human cardiac myosin binding protein-C (MyBP-C) (domain or fragment)”, for which the Kd in test [1] was found to be 1.5 µM; in test [2] it was 1.1 µM.
In test [3], “WT human β-cardiac 25-hep HMM (from UniProt P12883 1-1016; P08590 1-195) (complex)” returned a Kd of 1.1 µM.
For the substance “proximal S2 of human β-cardiac myosin (from UniProt P12883 1-1935) (domain or fragment)”, the Kd came out at 62 µM in test [4] and 58 µM in test [5].
